Biological target: GFP-tagged mDia1ΔN3 (mouse) (UniProt O08808)
Chain of UniProt O08808 (O08808 543-1192, stated change not applied): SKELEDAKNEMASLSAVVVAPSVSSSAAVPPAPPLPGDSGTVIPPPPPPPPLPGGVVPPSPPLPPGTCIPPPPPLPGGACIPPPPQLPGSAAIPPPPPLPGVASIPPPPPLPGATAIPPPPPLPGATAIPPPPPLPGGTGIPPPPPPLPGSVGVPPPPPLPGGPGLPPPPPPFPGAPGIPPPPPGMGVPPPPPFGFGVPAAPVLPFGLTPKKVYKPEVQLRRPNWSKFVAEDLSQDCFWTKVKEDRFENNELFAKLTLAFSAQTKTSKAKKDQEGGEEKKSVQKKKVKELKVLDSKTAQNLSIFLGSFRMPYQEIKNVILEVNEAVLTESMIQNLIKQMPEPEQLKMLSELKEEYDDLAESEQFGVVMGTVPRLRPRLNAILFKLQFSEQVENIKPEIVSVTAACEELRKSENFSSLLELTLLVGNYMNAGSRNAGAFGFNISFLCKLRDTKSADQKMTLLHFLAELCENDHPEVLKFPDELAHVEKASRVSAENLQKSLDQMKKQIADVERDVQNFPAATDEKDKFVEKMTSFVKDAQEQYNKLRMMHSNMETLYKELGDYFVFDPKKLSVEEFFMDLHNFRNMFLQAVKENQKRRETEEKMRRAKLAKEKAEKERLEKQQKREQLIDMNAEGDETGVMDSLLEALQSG

**Q.** For “Flag-tagged mouse Phb2 FL (from UniProt O35129 1-299) (natural protein)”, which frequency of MyoG+ cells (immunofluorescence) in C2C12 myotubes co-expressing Phb2 FL and mDia1ΔN3 (mDia1ΔN3 alone: 15%) is on record?
**A.** Its frequency of MyoG+ cells (immunofluorescence) in C2C12 myotubes co-expressing Phb2 FL and mDia1ΔN3 (mDia1ΔN3 alone: 15%) is 53%.

Source: paper PMC6549159
